According to patent US12072338B2, “Pharmaceutical peptides for the treatment of inflammatory diseases” (PROTAGONISTS LTD., priority 2007, dated 2024):
Each block holds one substance with its values, some of them ahead of it.

What was measured:
GRO-β = biological target: T1, GRO-β (Homo sapiens, UniProt P19875); assay: Micro-array analysis of chemokine binding peptides: GRO-β
T1 construct: purchased 300-39
T1 sequence (P19875 35-107): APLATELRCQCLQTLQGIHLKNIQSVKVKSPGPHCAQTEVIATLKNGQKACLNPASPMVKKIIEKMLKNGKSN
Method: (§1) (1) Printing: Chemokine (CK) solution (in water) was serially diluted with Print Reagent (GenTel BioSurfaces USA) to final concentrations of 50 μg and 25 μg/ml. BSA/BSA-Biotin control solutions (in water) were diluted with Print Reagent to 100 μg/ml. Amplified stock of M13 phage control (M13KEgIII Cloning Vector, New England Biolabs, Cat.No.E8101S) was stored in Tris Buffered Saline (TBS; pH7.5, 4° C.) and diluted with Print Reagent to the working titre (10^8 pfu/μl). An automated spotting robot (16 pin print tool, 0.4 mm head; BioRobotics, UK) was used to print the CK/BSA control/M13 control, 5 repeats per sample (CK 25 μg/ml and 50 μg/ml; BSA 100 μg/ml; M13 20 μl), on PATH Protein Microarray Slides (GenTel, Prod.No. 2-1005/-1025) at […], and 50-70% relative humidity. Printed micro-array slides were stored at Room Temperature (RT) or 4° C. for at least 24 h before use.
(§2) (2) Blocking: Block Buffer (500 μl/partition; PATHblock, GenTel, Prod.No. 2-1014) was applied to the slide for 1 hour at room temp (RT). After removal of Block Buffer, the slide was air dried for 25 minutes;
(§3) (3) Phage Presented Peptide Binding: Amplified recombinant phage stock was stored in TBS and diluted with Wash Buffer to working titer (10^7 pfu/μl). Recombinant phage suspension (300 μl) was applied per partition and incubated at RT for 1 hour with gentle agitation.
(§4) (4) First Washing: The slides were washed twice with Wash Buffer 300 μl/partition).
(§5) (5) Primary Antibody (Ab) Labeling: The slides were incubated with the Primary Ab (1 mg/ml diluted ×2500 (Wash Reagent), 300 μl; Mouse Anti-M13 monoclonal Ab; Amersham Biosciences, UK; Product Code 27-9420-01) for 45 minutes at RT.
(§6) (6) Second Washing: The slides were washed twice with Wash Buffer (300 μl/partition).
(§7) (7) Secondary Ab Labeling: The slides were incubated with Secondary Ab (1.5 mg/ml diluted ×5000 (Wash Reagent), 300 μl; Cy3-conjugated AffiniPure Goat Anti-Mouse IgG; Jackson ImmunoReserch Labs, USA; Product Code 115-165-062).
(§8) (8) Third Washing: The slides were washed twice with Wash Buffer (300 μl/partition).
(§9) (9) Rinse: the slides were rinsed twice with Rinse Buffer (PATHrinse, GenTel, Prod.No. 2-1018) then dried well.
(§10) (10) Scanning: The peptide-bound, labeled slide was scanned (Laser Intensity 80%, Gain 80%, Resolution 10 μm) with a ScanArray Life Scanner (Packard BioChip Technologies, USA).
(§11) (11) Analysis: Quantitative analysis of micro-array was performed by the SpotReader program of Niles Scientific (USA) and presented as Relative Fluorescence (RF) as a function of CK concentration. Micro-array readout (Cy3 fluorescence) was quantified to determine the relative binding affinities of a CBP for the CKs and by inference, the specificity of the CBP for binding to a CK.

IL-8 = assay: Micro-array analysis of chemokine binding peptides: IL-8
Method: as §1, §2, §3, §4, §5, §6, §7, §8, §9, §10, §11

Mig = biological target: T2, Mig (Homo sapiens, UniProt Q07325); assay: Micro-array analysis of chemokine binding peptides: Mig; conditions: limit = start of the upper 75% of that peptide's response range
T2 construct: purchased 300-26
T2 sequence (Q07325 23-125): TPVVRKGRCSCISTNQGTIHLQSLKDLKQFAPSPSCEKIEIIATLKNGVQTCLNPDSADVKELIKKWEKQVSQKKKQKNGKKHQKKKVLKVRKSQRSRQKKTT
Method: as §1, §2, §3, §4, §5, §6, §7, §8, §9, §10, §11

I-TAC = biological target: T3, I-TAC (Homo sapiens, UniProt O14625); assay: Micro-array analysis of chemokine binding peptides: I-TAC; conditions: limit = start of the upper 75% of that peptide's response range
T3 construct: purchased 300-46
T3 sequence (O14625 22-94): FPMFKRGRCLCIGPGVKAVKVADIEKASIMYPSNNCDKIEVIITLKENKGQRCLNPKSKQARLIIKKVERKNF
Method: as §1, §2, §3, §4, §5, §6, §7, §8, §9, §10, §11

MCP-1 = biological target: T4, MCP-1 (Homo sapiens, UniProt P13500); assay: Micro-array analysis of chemokine binding peptides: MCP-1
T4 construct: purchased 300-04
Method: as §1, §2, §3, §4, §5, §6, §7, §8, §9, §10, §11

MCP-2 = biological target: T5, MCP-2 (Homo sapiens, UniProt P80075); assay: Micro-array analysis of chemokine binding peptides: MCP-2
T5 construct: purchased 300-15
T5 sequence (P80075 24-99): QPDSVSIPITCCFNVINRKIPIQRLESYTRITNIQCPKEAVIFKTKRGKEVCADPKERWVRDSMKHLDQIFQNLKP
Method: as §1, §2, §3, §4, §5, §6, §7, §8, §9, §10, §11

MCP-4 = biological target: T6, MCP-4 (Homo sapiens, UniProt Q99616); assay: Micro-array analysis of chemokine binding peptides: MCP-4
T6 construct: purchased 300-24
Method: as §1, §2, §3, §4, §5, §6, §7, §8, §9, §10, §11

RANTES = biological target: T7, RANTES (Homo sapiens, UniProt P13501); assay: Micro-array analysis of chemokine binding peptides: RANTES
T7 construct: purchased 300-06
T7 sequence (P13501 24-91): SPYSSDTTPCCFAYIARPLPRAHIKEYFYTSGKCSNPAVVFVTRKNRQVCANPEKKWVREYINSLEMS
Method: as §1, §2, §3, §4, §5, §6, §7, §8, §9, §10, §11

Eotaxin = biological target: T8, Eotaxin (Homo sapiens, UniProt P51671); assay: Micro-array analysis of chemokine binding peptides: Eotaxin
T8 construct: purchased 300-21
Method: as §1, §2, §3, §4, §5, §6, §7, §8, §9, §10, §11

Eotaxin 2 = biological target: T9, Eotaxin 2 (Homo sapiens, UniProt O00175); assay: Micro-array analysis of chemokine binding peptides: Eotaxin 2
T9 construct: purchased 300-33
T9 sequence (O00175 27-119): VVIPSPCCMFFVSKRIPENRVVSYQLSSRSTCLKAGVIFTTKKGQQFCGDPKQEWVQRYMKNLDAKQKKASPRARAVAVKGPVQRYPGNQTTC
Method: as §1, §2, §3, §4, §5, §6, §7, §8, §9, §10, §11

Eotaxin 3 = biological target: T10, Eotaxin 3 (Homo sapiens, UniProt Q9Y258); assay: Micro-array analysis of chemokine binding peptides: Eotaxin 3
T10 construct: purchased 300-48
T10 sequence (Q9Y258 24-94): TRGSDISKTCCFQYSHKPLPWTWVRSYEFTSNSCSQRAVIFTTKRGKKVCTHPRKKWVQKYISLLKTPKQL
Method: as §1, §2, §3, §4, §5, §6, §7, §8, §9, §10, §11

BCA-1 = biological target: T11, BCA-1 (Homo sapiens, UniProt O43927); assay: Micro-array analysis of chemokine binding peptides: BCA-1
T11 construct: purchased 300-47
T11 sequence (O43927 23-109): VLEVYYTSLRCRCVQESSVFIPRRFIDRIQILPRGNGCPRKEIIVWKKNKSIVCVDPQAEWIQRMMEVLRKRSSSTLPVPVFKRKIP
Method: as §1, §2, §3, §4, §5, §6, §7, §8, §9, §10, §11

TECK = biological target: T12, TECK (Homo sapiens, UniProt O15444); assay: Micro-array analysis of chemokine binding peptides: TECK
T12 construct: purchased 300-45
T12 sequence (O15444 24-150): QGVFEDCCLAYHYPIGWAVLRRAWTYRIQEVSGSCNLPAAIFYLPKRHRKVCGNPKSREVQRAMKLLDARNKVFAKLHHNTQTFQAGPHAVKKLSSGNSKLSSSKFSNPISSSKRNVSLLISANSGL
Method: as §1, §2, §3, §4, §5, §6, §7, §8, §9, §10, §11

Fractalkine = biological target: T13, Fractalkine (Homo sapiens, UniProt P78423); assay: Micro-array analysis of chemokine binding peptides: Fractalkine
T13 construct: purchased 300-31
T13 sequence (P78423 25-100 limits assumed): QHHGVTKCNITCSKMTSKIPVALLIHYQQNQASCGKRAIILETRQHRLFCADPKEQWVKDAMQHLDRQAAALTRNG
Method: as §1, §2, §3, §4, §5, §6, §7, §8, §9, §10, §11

Lymphotactin = biological target: T14, Lymphotactin (Homo sapiens, UniProt P47992); assay: Micro-array analysis of chemokine binding peptides: Lymphotactin
T14 construct: purchased 300-20
T14 sequence (P47992 22-114): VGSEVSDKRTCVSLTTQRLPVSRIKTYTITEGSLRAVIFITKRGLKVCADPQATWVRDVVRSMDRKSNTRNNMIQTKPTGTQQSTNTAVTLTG
Method: as §1, §2, §3, §4, §5, §6, §7, §8, §9, §10, §11

Exodus-2 = biological target: T15, Exodus-2 (Homo sapiens, UniProt O00585); assay: Micro-array analysis of chemokine binding peptides: Exodus-2
T15 construct: purchased 300-35
T15 sequence (O00585 24-134): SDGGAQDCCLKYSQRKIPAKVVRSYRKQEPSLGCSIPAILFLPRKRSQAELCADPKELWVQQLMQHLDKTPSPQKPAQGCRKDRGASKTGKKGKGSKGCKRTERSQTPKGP
Method: as §1, §2, §3, §4, §5, §6, §7, §8, §9, §10, §11

IP-10 = biological target: T16, IP-10 (Homo sapiens, UniProt P02778); assay: Micro-array analysis of chemokine binding peptides: IP-10; conditions: limit = start of the upper 75% of that peptide's response range
T16 construct: purchased 300-12
T16 sequence (P02778 22-98): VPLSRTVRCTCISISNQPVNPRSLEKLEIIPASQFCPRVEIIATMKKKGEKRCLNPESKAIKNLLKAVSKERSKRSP
Method: as §1, §2, §3, §4, §5, §6, §7, §8, §9, §10, §11

I-309 = biological target: T17, I-309 (Homo sapiens, UniProt P22362); assay: Micro-array analysis of chemokine binding peptides: I-309; conditions: limit = start of the upper 75% of that peptide's response range
T17 construct: purchased 300-37
T17 sequence (P22362 24-96): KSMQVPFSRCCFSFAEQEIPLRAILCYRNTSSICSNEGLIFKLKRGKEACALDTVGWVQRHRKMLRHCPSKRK
Method: as §1, §2, §3, §4, §5, §6, §7, §8, §9, §10, §11

SDF1 = assay: Micro-array analysis of chemokine binding peptides: SDF1 (isoform not given)
Method: as §1, §2, §3, §4, §5, §6, §7, §8, §9, §10, §11

[1] = limit = start of the upper 75% of that peptide's response range

T6 sequence (Q99616 17-98): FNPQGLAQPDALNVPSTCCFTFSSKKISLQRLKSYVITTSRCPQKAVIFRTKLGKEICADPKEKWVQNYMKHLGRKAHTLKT
Chain of IL-8 (P10145 28-99 limits assumed): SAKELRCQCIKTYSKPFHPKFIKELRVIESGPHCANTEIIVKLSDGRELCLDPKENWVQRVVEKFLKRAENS
T4 sequence (P13500 24-99): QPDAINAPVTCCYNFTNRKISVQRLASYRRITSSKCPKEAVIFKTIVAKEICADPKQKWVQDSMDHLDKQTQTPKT
Chain of SDF1 (P48061 22-89 limits assumed): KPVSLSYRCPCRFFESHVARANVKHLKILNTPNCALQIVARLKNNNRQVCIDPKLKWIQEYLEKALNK

binding to GRO-β, stated in words (GRO-β): bound
binding to IL-8, stated in words (IL-8): bound
binding to Mig with relatively high affinity (Relative Fluorescence Units) (Mig): > 15,000 RFU
binding to I-TAC with relatively high affinity (Relative Fluorescence Units) (I-TAC): > 15,000 RFU
binding to MCP-1, stated in words (MCP-1): bound
binding to MCP-2, stated in words (MCP-2): bound
binding to MCP-4, stated in words (MCP-4): bound
binding to RANTES, stated in words (RANTES): bound
binding to Eotaxin, stated in words (Eotaxin): bound
binding to Eotaxin 2, stated in words (Eotaxin 2): bound
binding to Eotaxin 3, stated in words (Eotaxin 3): bound
binding to BCA-1, stated in words (BCA-1): bound
binding to TECK, stated in words (TECK): bound
binding to Fractalkine, stated in words (Fractalkine): bound
binding to Lymphotactin, stated in words (Lymphotactin): bound
binding to Exodus-2, stated in words (Exodus-2): bound
Substance: SYYDDVGL [Ph-p27]

binding to IL-8 with relatively high affinity (Relative Fluorescence Units) (IL-8; [1]): > 15,000 RFU
binding to Mig with relatively high affinity (Relative Fluorescence Units) (Mig): > 15,000 RFU
binding to IP-10 with relatively high affinity (Relative Fluorescence Units) (IP-10): > 15,000 RFU
binding to I-TAC with relatively high affinity (Relative Fluorescence Units) (I-TAC): > 15,000 RFU
binding to I-309 with relatively high affinity (Relative Fluorescence Units) (I-309): > 15,000 RFU
binding to MCP-2 with relatively high affinity (Relative Fluorescence Units) (MCP-2; [1]): > 15,000 RFU
binding to MCP-4 with relatively high affinity (Relative Fluorescence Units) (MCP-4; [1]): > 15,000 RFU
binding to Eotaxin with relatively high affinity (Relative Fluorescence Units) (Eotaxin; [1]): > 15,000 RFU
binding to Eotaxin 3 with relatively high affinity (Relative Fluorescence Units) (Eotaxin 3; [1]): > 15,000 RFU
binding to BCA-1, stated in words (BCA-1): bound
binding to TECK, stated in words (TECK): bound
binding to Fractalkine, stated in words (Fractalkine): bound
binding to Lymphotactin, stated in words (Lymphotactin): bound
binding to SDF1 (isoform not given), stated in words (SDF1): bound
Substance: WVFG (listed as Homo sapiens) [Ph-p8.4]
